Tested on: pS396/pS404 peptide
Test: ELISA, pS396/pS404 peptide
Type: binding
Details: plate coated with peptide 2 μg/mL; C5.2 IgG 8 μg/mL–0.05 ng/mL, 1 h room temperature; 405 nm
Description: Immulon 4 HBX (extra high-binding) 96-well microtiter plates (Thermo Scientific) were coated with the same peptide used for crystallization diluted to 2 μg/mL in phosphate-buffered saline (PBS) and left overnight at 4 °C (Table 1). Plates were then washed three times in PBS-T (PBS containing 0.05% Tween-20) and blocked in 5% non-fat milk and 3% bovine serum albumin in PBS for 2 hours at room temperature. Plates were subsequently washed 3 times in PBS-T before C5.2 was serially diluted (8 μg/mL–0.05 ng/mL) in PBS and incubated for 1 hour at room temperature. Then, alkaline phosphatase-conjugated goat anti-mouse IgG (Southern Biotech) was diluted 1:2000 in PBS and incubated for 30 minutes at room temperature. Finally, bound IgG was analyzed by addition of p-nitrophenyl phosphate substrate (Thermo Scientific) and measurement at 405 nm on a VersaMax Microplate Reader.
In order to evaluate the ability of C5.2 to exclusively target the phosphorylated epitope, we performed an enzyme-linked immunosorbent assay (ELISA). The peptides used in the assay are the same peptides used for crystallization and diluted to a concentration of 2 μg/mL (Table 1). Binding curves were generated from ELISA data by maintaining plate-bound peptide concentrations and serially diluting C5.2 IgG (Fig. 1c).

B1: C5.2: novel mouse monoclonal antibody that targets the pS396 tau epitope region (antibody, V domains shown)
VH: QVQLQQSDAELVKPGASVKISCKASGYTFTDRTIHWVKQRPEQGLEWIGYIYPGDDSTKYNDMFKAKATLTADKSSNTAYMQLNSLTSDDSAVYFCARRGTMDYWGQGTSVTVSS
VL: DVQMIQSPSSLSASLGDIVTMTCQASQDTSINLNWFQQKPGKAPKLLIYGASNLEDGVPSRFSGSRYGTDFTLTISSLEDEDMATYFCLQHTYLPFTFGSGTKLEIK
Association with peptide (ELISA): strong association
